Experimental data taken from US20110311553A1 (Boehringer Ingelheim, published 2011).

Target: Labeled peptide representing the N-terminus of PAR-2 (FRET peptide)
Test: cell-based or functional assay

Row | Binder | FRET Peptide Cleavage IC50
1 | Ab4996 IgG4_Pro (antibody, V domains shown) VH: QVQLVESGGGLVQPGGSLRLSCAASGFTFSNHAMHWVRQAPGKGLEWVSAISHPGKFTYYADSVKGRFTISRDNSKNTLYLQMNSLRAEDTAVYYCARHGDGMDYFDFWGQGTLVTVSS VL: DIELTQPPSVSVAPGQTARISCSGDNIGTKYVYWYQQKPGQAPVLVIYDDNNRPSGIPERFSGSNSGNTATLTISGTQAEDEADYYCQSYDSQTMVFGGGTKLTVLG | < 30 nM
2 | Ab4994 IgG4_Pro (antibody, V domains shown) VH: QVQLVESGGGLVQPGGSLRLSCAASGFTFSSYAMNWVRQAPGKGLEWVSAISYSGHLTGYADSVKGRFTISRDNSKNTLYLQMNSLRAEDTAVYYCARIQNDPMDVWGQGTLVTVSS VL: DIELTQPPSVSVAPGQTARISCSGDNLGKKYVQWYQQKPGQAPVLVIYDDSNRPSGIPERFSGSNSGNTATLTISGTQAEDEADYYCSSWDVGSDGWVFGGGTKLTVLG | < 30 nM
3 | Ab4999 IgG4_Pro (antibody, V domains shown) VH: QVQLVESGGGLVQPGGSLRLSCAASGFTFSSYAMNWVRQAPGKGLEWVSTISYSSSATSYADSVKGRFTISRDNSKNTLYLQMNSLRAEDTAVYYCARIQNDPMDVWGQGTLVTVSS VL: DIELTQPPSVSVAPGQTARISCSGDNLGKKYVQWYQQKPGQAPVLVIYDDSNRPSGIPERFSGSNSGNTATLTISGTQAEDEADYYCQTWDYSSIRDETNVFGGGTKLTVLG | < 30 nM
4 | Ab4997 IgG4_Pro (antibody, V domains shown) VH: QVQLVESGGGLVQPGGSLRLSCAASGFTFSSYAMNWVRQAPGKGLEWVSAISYNGKLKGYADSVKGRFTISRDNSKNTLYLQMNSLRAEDTAVYYCARIQNDPMDVWGQGTLVTVSS VL: DIELTQPPSVSVAPGQTARISCSGDNLGKKYVQWYQQKPGQAPVLVIYDDSNRPSGIPERFSGSNSGNTATLTISGTQAEDEADYYCSSWDVGSDGWVFGGGTKLTVLG | < 30 nM
5 | Ab5149 IgG4_Pro (light chain of Ab4999 combined with heavy chain of Ab4997) (antibody, V domains shown) VH: QVQLVESGGGLVQPGGSLRLSCAASGFTFSSYAMNWVRQAPGKGLEWVSAISYNGKLKGYADSVKGRFTISRDNSKNTLYLQMNSLRAEDTAVYYCARIQNDPMDVWGQGTLVTVSS VL: DIELTQPPSVSVAPGQTARISCSGDNLGKKYVQWYQQKPGQAPVLVIYDDSNRPSGIPERFSGSNSGNTATLTISGTQAEDEADYYCQTWDYSSIRDETNVFGGGTKLTVLG | < 30 nM
6 | Ab5150 IgG4_Pro (light chain of Ab4999 combined with heavy chain of Ab5003) (antibody, V domains shown) VH: QVQLVESGGGLVQPGGSLRLSCAASGFTFSSYAMNWVRQAPGKGLEWVSAISYKGHLTGYADSVKGRFTISRDNSKNTLYLQMNSLRAEDTAVYYCARIQNDPMDVWGQGTLVTVSS VL: DIELTQPPSVSVAPGQTARISCSGDNLGKKYVQWYQQKPGQAPVLVIYDDSNRPSGIPERFSGSNSGNTATLTISGTQAEDEADYYCQTWDYSSIRDETNVFGGGTKLTVLG | < 30 nM
7 | Ab5151 IgG4_Pro (light chain of Ab4999 combined with heavy chain of Ab5007) (antibody, V domains shown) VH: QVQLVESGGGLVQPGGSLRLSCAASGFTFSSYAMNWVRQAPGKGLEWVSAISFSGHLTGYADSVKGRFTISRDNSKNTLYLQMNSLRAEDTAVYYCARIQNDPMDVWGQGTLVTVSS VL: DIELTQPPSVSVAPGQTARISCSGDNLGKKYVQWYQQKPGQAPVLVIYDDSNRPSGIPERFSGSNSGNTATLTISGTQAEDEADYYCQTWDYSSIRDETNVFGGGTKLTVLG | < 30 nM
8 | Ab5007 IgG4_Pro (antibody, V domains shown) VH: QVQLVESGGGLVQPGGSLRLSCAASGFTFSSYAMNWVRQAPGKGLEWVSAISFSGHLTGYADSVKGRFTISRDNSKNTLYLQMNSLRAEDTAVYYCARIQNDPMDVWGQGTLVTVSS VL: DIELTQPPSVSVAPGQTARISCSGDNLGKKYVQWYQQKPGQAPVLVIYDDSNRPSGIPERFSGSNSGNTATLTISGTQAEDEADYYCSSWDVGSDGWVFGGGTKLTVLG | < 30 nM
9 | Ab5005 IgG4_Pro (antibody, V domains shown) VH: QVQLVESGGGLVQPGGSLRLSCAASGFTFSSYAMNWVRQAPGKGLEWVSTISYSSSATSYADSVKGRFTISRDNSKNTLYLQMNSLRAEDTAVYYCARIQNDPMDVWGQGTLVTVSS VL: DIELTQPPSVSVAPGQTARISCSGDNLGKKYVQWYQQKPGQAPVLVIYDDSNRPSGIPERFSGSNSGNTATLTISGTQAEDEADYYCQSWALVGSSESNVFGGGTKLTVLG | < 30 nM
10 | Ab5003 IgG4_Pro (antibody, V domains shown) VH: QVQLVESGGGLVQPGGSLRLSCAASGFTFSSYAMNWVRQAPGKGLEWVSAISYKGHLTGYADSVKGRFTISRDNSKNTLYLQMNSLRAEDTAVYYCARIQNDPMDVWGQGTLVTVSS VL: DIELTQPPSVSVAPGQTARISCSGDNLGKKYVQWYQQKPGQAPVLVIYDDSNRPSGIPERFSGSNSGNTATLTISGTQAEDEADYYCSSWDVGSDGWVFGGGTKLTVLG | < 30 nM
